# In paper PMC2474647:
# Biological target: GST-HP1β (UniProt P83917)
# Test: pull-down; GST-HP1β bound to glutathione beads, in nuclear extraction buffer, incubated with FLAG-TIF1βs purified from 293T cells by FLAG peptide elution; Western blot quantified with ImageGauge, normalised to GST-HP1β
# Chain of UniProt P83917 (P83917 whole entry): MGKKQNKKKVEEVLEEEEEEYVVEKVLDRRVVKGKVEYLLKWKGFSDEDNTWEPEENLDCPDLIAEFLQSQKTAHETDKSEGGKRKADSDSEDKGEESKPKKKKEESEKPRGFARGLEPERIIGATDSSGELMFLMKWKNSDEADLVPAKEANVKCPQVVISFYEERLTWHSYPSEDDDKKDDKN
row,relative level pulled down by GST-HP1β (normalised to GST-HP1β),Substance
1,1.63,"FLAG-TIF1β/S473A, expressed in 293T cells (natural protein)"
2,1.39,"FLAG-TIF1β (wild type), expressed in 293T cells (natural protein)"
